Measured values published in patent US20190142963A1 (INDIANA UNIVERSITY RESEARCH AND TECHNOLOGY, published 2019).
Non-standard residues stand in square brackets, D forms with d. No end group written: not given here.

T1: human Klotho β (human, UniProt Q86Z14 1-1044)
T1 sequence (looked up): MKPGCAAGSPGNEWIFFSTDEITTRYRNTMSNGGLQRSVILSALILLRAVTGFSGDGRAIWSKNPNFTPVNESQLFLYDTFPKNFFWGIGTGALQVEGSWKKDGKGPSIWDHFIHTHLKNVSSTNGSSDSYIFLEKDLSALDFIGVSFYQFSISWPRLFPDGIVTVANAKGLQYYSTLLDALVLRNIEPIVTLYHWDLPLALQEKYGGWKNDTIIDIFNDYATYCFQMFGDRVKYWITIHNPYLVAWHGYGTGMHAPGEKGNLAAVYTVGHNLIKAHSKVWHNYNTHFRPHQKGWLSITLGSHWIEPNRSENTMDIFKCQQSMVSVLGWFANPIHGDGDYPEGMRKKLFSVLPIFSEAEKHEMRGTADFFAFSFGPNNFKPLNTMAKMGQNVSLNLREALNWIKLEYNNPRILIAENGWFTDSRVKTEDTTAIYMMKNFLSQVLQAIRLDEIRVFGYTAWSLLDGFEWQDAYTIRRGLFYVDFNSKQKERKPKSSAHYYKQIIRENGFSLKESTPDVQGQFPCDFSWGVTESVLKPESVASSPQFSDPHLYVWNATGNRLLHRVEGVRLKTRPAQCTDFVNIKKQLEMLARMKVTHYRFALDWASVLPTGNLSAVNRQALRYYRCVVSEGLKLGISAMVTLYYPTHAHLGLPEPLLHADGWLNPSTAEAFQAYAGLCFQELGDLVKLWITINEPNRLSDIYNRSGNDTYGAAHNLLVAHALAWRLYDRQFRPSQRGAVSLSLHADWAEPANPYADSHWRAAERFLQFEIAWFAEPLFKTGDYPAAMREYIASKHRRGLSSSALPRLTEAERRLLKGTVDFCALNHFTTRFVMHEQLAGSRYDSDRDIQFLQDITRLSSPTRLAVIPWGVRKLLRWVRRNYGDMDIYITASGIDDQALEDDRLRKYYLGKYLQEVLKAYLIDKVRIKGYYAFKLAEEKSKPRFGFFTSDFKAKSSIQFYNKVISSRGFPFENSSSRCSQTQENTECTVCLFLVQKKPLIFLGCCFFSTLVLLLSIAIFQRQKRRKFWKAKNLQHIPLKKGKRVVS

B1: FGF21 25mer A22 (peptide)
peptide: PPDVGSSDPLSMVGPSQGRSPAYAS
B2: FGF21 25mer A18 (peptide)
peptide: PPDVGSSDPLSMVGPSQARSPSYAS
B3: FGF21 25mer A17 (peptide)
peptide: PPDVGSSDPLSMVGPSAGRSPSYAS
B4: FGF21 25mer A2 (peptide)
peptide: PADVGSSDPLSMVGPSQGRSPSYAS
B5: FGF21 25mer A19 (peptide)
peptide: PPDVGSSDPLSMVGPSQGASPSYAS
B6: FGF21 25mer A4 (peptide)
peptide: PPDAGSSDPLSMVGPSQGRSPSYAS
B7: FGF21 25mer A7 (peptide)
peptide: PPDVGSADPLSMVGPSQGRSPSYAS
B8: FGF21 25mer A3 (peptide)
peptide: PPAVGSSDPLSMVGPSQGRSPSYAS
B9: FGF21 25mer A6 (peptide)
peptide: PPDVGASDPLSMVGPSQGRSPSYAS
B10: FGF21 25mer A21 (peptide)
peptide: PPDVGSSDPLSMVGPSQGRSASYAS
B11: FGF21 25mer A20 (peptide)
peptide: PPDVGSSDPLSMVGPSQGRAPSYAS
B12: FGF21 25mer A23 (peptide)
peptide: PPDVGSSDPLSMVGPSQGRSPSAAS
B13: FGF21 25mer A14 (peptide)
peptide: PPDVGSSDPLSMVAPSQGRSPSYAS
B14: FGF21 25mer A25 (peptide)
peptide: PPDVGSSDPLSMVGPSQGRSPSYAA
B15: FGF21 25mer A13 (peptide)
peptide: PPDVGSSDPLSMAGPSQGRSPSYAS
B16: FGF21 157-181 (peptide)
peptide: PPDVGSSDPLSMVGPSQGRSPSYAS-NH2
B17: FGF21 25mer A10 (peptide)
peptide: PPDVGSSDPASMVGPSQGRSPSYAS
B18: FGF21 25mer A11 (peptide)
peptide: PPDVGSSDPLAMVGPSQGRSPSYAS
B19: FGF21 25mer A15 (peptide)
peptide: PPDVGSSDPLSMVGASQGRSPSYAS
B20: FGF21 25mer A1 (peptide)
peptide: APDVGSSDPLSMVGPSQGRSPSYAS
B21: FGF21 25mer A16 (peptide)
peptide: PPDVGSSDPLSMVGPAQGRSPSYAS
B22: FGF21 D11 (peptide)
peptide: PPDVGSSDPL[dS]MVGPSQGRSPSYAS-NH2
B23: FGF21 D19 (peptide)
peptide: PPDVGSSDPLSMVGPSQG[dR]SPSYAS-NH2
B24: FGF19 S10 (peptide)
peptide: LETDSMDPF[dS]LVTGLEAVRSPSFES-NH2
B25: FGF19 S10A26 (peptide)
peptide: LETDSMDPF[dS]LVTGLEAVRSPSFEA-NH2
B26: FGF19 A26 (peptide)
peptide: LETDSMDPFGLVTGLEAVRSPSFEA
B27: FGF21 D11D19 (peptide)
peptide: PPDVGSSDPL[dS]MVGPSQG[dR]SPSYAS-NH2

The binders below were run against T1, human Klotho β (assay: cell-based or functional assay).

Binder | % max activity of antagonism of FGF21 (pErk1/2, 293 HEK hKLB cells) | IC-50 of antagonism of FGF21 (pErk1/2, 293 HEK hKLB cells)
B1 | 78.5% | 752 nM
B2 | 103% | 139 nM
B3 | 99.7% | 139 nM
B4 | 98.5% | 137 nM
B5 | 100% | 102 nM
B6 | 63.6% | 5.93 µM
B7 | 94.5% | 359 nM
B8 | 87.8% | 2.28 µM
B9 | 89.2% | 2.65 µM
B10 | 70.5% | 2.24 µM
B11 | 73.5% | 3.23 µM
B12 | 73.6% | 3.98 µM
B13 | 97.7% | 136 nM
B14 | 99% | 45 nM
B15 | 87.9% | 2.11 µM
B16 | 100% | 168 nM
B17 | 76% | 3.32 µM
B18 | 98% | 102 nM
B19 | 93.9% | 134 nM
B20 | 100% | 33 nM
B21 | 101% | 120 nM

Molecular target: T1, human Klotho β
Experiment: cell-based or functional assay
Remark: another data set of the same source

Binder | IC-50 of antagonism of FGF21 (pErk1/2, 293 HEK hKLB cells)
B2 | 0.15 µM
B3 | 0.13 µM
B4 | 0.62 µM
B5 | 0.1 µM
B7 | 0.36 µM
B13 | 0.13 µM
B14 | 0.06 µM
B16 | 0.16 µM
B18 | 0.15 µM
B19 | 0.12 µM
B20 | 0.39 µM
B21 | 0.11 µM

Molecular target: T1, human Klotho β
Experiment: cell-based or functional assay
Remark: another data set of the same source

Binder | IC-50 of antagonism of FGF21 (pErk1/2, 293 HEK hKLB cells)
B1 | 0.67 µM
B6 | 2.69 µM
B8 | 1.5 µM
B9 | 2.44 µM
B10 | 2.57 µM
B11 | 2.21 µM
B12 | 4.16 µM
B15 | 4.6 µM
B17 | 2.75 µM

Molecular target: T1, human Klotho β
Experiment: cell-based or functional assay
Remark: another data set of the same source

Binder | % Activity vs C25 | IC50 of antagonism of FGF21 (assay of Example 1)
B22 | 596% | 57.3 nM
B23 | 271% | 152 nM
B16 | 100% | 283 nM

Molecular target: T1, human Klotho β
Experiment: cell-based or functional assay
Remark: another data set of the same source

Binder | IC50 of antagonism of FGF21 (assay of Example 1)
B24 | 194 nM
B22 | 19.9 nM
B25 | 10.9 nM
B26 | 17.9 nM
B23 | 52.5 nM
B16 | 182 nM
B27 | 14.1 nM
